# Test results from US20230071019A1 (RESEARCH FOUNDATION FOR THE STATE UNIVERSITY OF NEW YORK, published 2023).
# Residue numbers refer to the chain shown, from its start.
# B1: Anti-Calicheamicin sdAb CG4 clone (VHH)
# VHH: QVQLQESGGGLVQAGGSLRLSCAASGRTISGYAMGWFRQAPGKERDLVAAISRSGTSTYYADSVKGRFTISRDNAKNTVYLQMNSLKPEDTAVYYCNAPGGIWGQGTQVTVSS
# B2: Anti-DM1/DM4 sdAb DF4B12 clone (VHH)
# VHH: EVQLVESGGGLVQPGGSLRLSCAASGSIFGISYMGWYRQAPGKQREPVALITSGGDTAYGDSVKGRFTISRDNAKNTVYLQMNSLTPEDTSTFYCAAGFYRSDSPNRYDYWGQGTQVTVSS
# notes: Purified sdAb; tag not described
# B3: Anti-DM1/DM4 sdAb DF3A2 clone (VHH)
# VHH: B2 VHH with E1Q, V5Q, S27G, T68A, T86K, E88D, T92A, F93Y
# notes: also called sdAb 3A2
# B4: Anti-DM1/DM4 sdAb DF3A4 clone (VHH)
# VHH: B2 VHH with E1Q, V5Q, D56S, A58Y, G60A, F67V, N76K, T86R, F93Y
# notes: as for B2
# B5: T3H3 (VHH)
# VHH: EVQLVESGGGLVQPGGSLRLSCAASGRTFSHDHMGWFRQAPGKEREFVAAISWTSSTYYGDSVKGRFTISRSNAKNTVYLQMNSLKPEDTAIYYCSWGVGYWGQGTQVTVSS
# notes: tested as phage media; also called DT3H3
# B6: T3B3 (VHH)
# VHH: EVQLVESGGGLVQAGGSLRLSCALSGGTLRSYTMGWIRQAPGKEREFVAGNRWSGGRTYYADSVKGRFTISGDNAENTVYLQMNSLKPEDTAVYYCTADVTEYGEDSSAYWGRGTQVTVSS
# notes: tested as phage media; also called DT3B3
# B7: T3B4 (VHH)
# VHH: QVQLQESGGGLVQAGDSLRLSCTASGRTFSRYTMGWFRQAPGKEREFVAAISTGGLRQYFGDSVRGRCTISRDNAKNTVYLQMDSLKPEDTAVYYCAATGNEYHWGRGTQVTVSS
# notes: tested as phage media; also called DT3B4
# B8: T3B5 (VHH)
# VHH: QVQLVQSGGGLVQPGGSLRLSCTASGRTFSRYTMGWFRQAPGKEREFVAAISTGGLRQYFGDSVRGRCTISRDNAKSTVYLQMDSLKPEDTAVYYCAANWGTSYYWGQGTQVTVSS
# notes: tested as phage media; also called DT3B5
# B9: Anti-Exatecan sdAb TF7 clone (VHH)
# VHH: QVQLQESGGGLAQPGGSLRVSCATSGFTFSSNYYISWVRQAPGRGLEWVSAINTGDGSTYYAHSVKGRFTISRDNAKNTLYLQMNSLKPEDTALYYCARSSLEGRIEKPYDYWGQGTQVTVSS
# notes: Llama single domain antibody; also called anti-camptothecin sdAb (TF7)
# Key:
# [1] = target: T1, Cetuximab-calicheamicin conjugate; test: competitive ELISA on cetuximab-calicheamicin coated plates, 64 µM CG4 with or without 10 µM free calicheamicin
# T1 construct: also called Cetuximab-calicheamcin conjugate; ADC (coated ELISA)
# Procedure: (§1) Nunc Maxisorp 96-well plates were coated with 4 μg/ml Cetuximab or Cetuximab-calicheamicin, or 5 μg/ml Avidin. Plates were washed three times with PBST and three times with dH2O, and blocked with MPBS for 2 h at RT. For the Avidin coated plates, plates were washed three times with PBST and incubated with 1 μM Biotin-Calicheamcin. […] Plates were then washed three times with PBST, where bound sdAb was detected using an anti-His tag HRP-conjugated Ab diluted 1:1000 in MPBST. Following incubated and five washed with PBST, 100 μL of 1-Step Turbo TMB-ELISA solution was added to each well and incubated for 30 minutes. The reaction was quenched by adding 100 μL of Stop solution to each well and absorbance was measured at 450 nm. Alternatively, wells can also be incubated with 1:1000 diluted anti-His tag AP-conjugated Ab, instead of HRP conjugated Ab.
# [2] = target: T1, Cetuximab-calicheamicin conjugate; test: competitive ELISA on cetuximab-calicheamicin coated plates, corrected for background
# Procedure: as §1
# cetuximab = target: T2, cetuximab; test: ELISA, purified CG4 on unconjugated cetuximab coat, anti-His HRP detection
# T2 construct: not shown: the constant regions
# Procedure: as §1
# avidin = target: T3, avidin (UniProt P02701 25-152); test: phage ELISA on avidin coat without biotin-DM1
# T3 construct: Negative-control coat; also called avidin alone
# T3 sequence (P02701 25-152 limits assumed): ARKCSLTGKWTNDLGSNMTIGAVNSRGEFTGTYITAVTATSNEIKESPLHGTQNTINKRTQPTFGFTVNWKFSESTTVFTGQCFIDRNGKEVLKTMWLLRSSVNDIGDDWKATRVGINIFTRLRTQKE
# [3] = target: T4, ado-trastuzumab emtansine; test: SPR, kinetic assessment, immobilized T-DM1
# T4 construct: Antibody-drug conjugate immobilised on a CM5 SPR chip; also called TDM1; T-DM1
# [4] = target: T4, ado-trastuzumab emtansine; test: SPR, kinetic fit (1:1 Langmuir), TDM1 on a CM5 chip, 3A2 injected at 1.25-10 nM
# Procedure: (§2) Preliminary screening of DM1/4 binders were performed using a neutravidin SPR chip with DM1-Biotin on the left channel. Phagemid purified sdAbs were flowed over the SPR chip for 2 minutes at a flow rate of 25 ul/min. After binding, sdAb was dissociated for 20 minutes. Observed sensorgrams were fit to an individual dissociation rate constant for each construct. Equilibrium and kinetic binding of 3A2 was assessed using a CM5 SPR chip with TDM1 immobilized on the left channel. […] Rate constants for 3A2-TDM1 association and dissociation were obtained through fitting of the observed sensorgrams for the 1.25, 2.5, 5, 7.5 and 10 nM injections to a 1:1 Langmuir binding model.
# (§3) Anti-DM1/DM4 sdAb DF3A2 clone. […] DNA encoding for 3A2 was synthesized and expressed in the E. coli strain SHuffle and purified using nickel chromatography. Purified 3A2 was used to assess TDM1 binding using SPR. […] To obtain a secondary measure of binding kinetics sdAb injected at concentrations between 1.25-10 nM were fit to a 1:1 Langmuir binding model to obtain association and dissociation rate constants.
# [5] = target: T4, ado-trastuzumab emtansine; test: SPR, equilibrium binding, TDM1 on a CM5 chip, 3A2 injected at 1.25-400 nM
# Procedure: as §2, §3
# exatecan conjugated BSA = target: T5, exatecan conjugated BSA (bovine, UniProt P02769 25-607, exatecan conjugated to BSA; chemistry and sites not stated); test: SPR, kinetic fit, BSA-conjugated exatecan on the chip
# T5 construct: Hapten-carrier conjugate immobilised on the SPR chip; also called BSA conjugated Exatecan
# T5 sequence (P02769 25-607 limits assumed): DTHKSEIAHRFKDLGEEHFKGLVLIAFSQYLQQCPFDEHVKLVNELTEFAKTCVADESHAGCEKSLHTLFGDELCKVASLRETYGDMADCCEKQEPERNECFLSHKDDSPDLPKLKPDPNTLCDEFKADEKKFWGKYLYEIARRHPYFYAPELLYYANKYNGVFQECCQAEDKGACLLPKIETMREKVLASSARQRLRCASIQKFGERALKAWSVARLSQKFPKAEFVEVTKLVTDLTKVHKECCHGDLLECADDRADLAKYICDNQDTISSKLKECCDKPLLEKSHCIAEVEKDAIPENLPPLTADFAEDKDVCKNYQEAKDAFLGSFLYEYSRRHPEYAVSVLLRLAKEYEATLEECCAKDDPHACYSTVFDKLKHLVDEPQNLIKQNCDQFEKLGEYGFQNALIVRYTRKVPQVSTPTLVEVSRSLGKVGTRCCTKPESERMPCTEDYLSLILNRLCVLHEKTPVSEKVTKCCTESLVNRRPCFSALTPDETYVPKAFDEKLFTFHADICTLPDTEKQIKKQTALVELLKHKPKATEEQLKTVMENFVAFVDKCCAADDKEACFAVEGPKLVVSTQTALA
binder,measurement,setting,value
B1,fold decrease of ELISA signal on addition of 10 µM free calicheamicin,[1],2.5 fold
same,"fold decrease of ELISA signal on addition of 10 µM free calicheamicin, corrected for background",[2],~3.3 fold
same,binding result,cetuximab,binds
B2,binding result,avidin,no binding
same,Kd,[3],4.33 nM
B3,Kd,[4],12.3 nM
same,binding result,avidin,no binding
same,Kd,[5],25 nM
B4,binding result,avidin,no binding
same,Kd,[3],5.59 nM
B5,binding result,avidin,no binding
B6,binding result,avidin,no binding
B7,binding result,avidin,no binding
B8,binding result,avidin,no binding
B9,Kd,exatecan conjugated BSA,10 nM
